{
  "source": "patent US20230080534A1",
  "about": "“SEMG2 ANTIBODY AND USE THEREOF” (SHANGHAI BIOTROY BIOTECHNIQUE CO., LTD., priority 2020, published 2023)",
  "molecules": {"B1": {"name": "H88-93: fully human antibody from phage library against SEMG2(497-509), VH SEQ ID NO:55, VL SEQ ID NO:58 (antibody, V domains shown)", "VH": "QITLKESGPTLVKPTQTLTLTCNFSGFSLTTSGVGVAWIRQPPGKALEWLALIYWDDDQRYSPSLKSRLSVTKHTSKDQVVLTMTNVGPVDTATYYCAHLSYGPGWGYYMDVWGNGTMVTVSS", "VL": "EIVLTQSPGTLSLSPGERASLSCRASQSVRNNYLAWYQQKPGQAPRLLIFGASNRATGIPDTFSGSGSGTDFTLTISRLEPEDFAVYYCQQYGHSPITFGQGTRLEIK", "modifications": "UNSURE (1)..(123) VH; UNSURE (1)..(108) VL"}},
  "key": {"[1]": {"target": "T1, binding between SEMG2 and CD27 (Homo sapiens, UniProt Q02383)", "T1 sequence (Q02383 24-582)": "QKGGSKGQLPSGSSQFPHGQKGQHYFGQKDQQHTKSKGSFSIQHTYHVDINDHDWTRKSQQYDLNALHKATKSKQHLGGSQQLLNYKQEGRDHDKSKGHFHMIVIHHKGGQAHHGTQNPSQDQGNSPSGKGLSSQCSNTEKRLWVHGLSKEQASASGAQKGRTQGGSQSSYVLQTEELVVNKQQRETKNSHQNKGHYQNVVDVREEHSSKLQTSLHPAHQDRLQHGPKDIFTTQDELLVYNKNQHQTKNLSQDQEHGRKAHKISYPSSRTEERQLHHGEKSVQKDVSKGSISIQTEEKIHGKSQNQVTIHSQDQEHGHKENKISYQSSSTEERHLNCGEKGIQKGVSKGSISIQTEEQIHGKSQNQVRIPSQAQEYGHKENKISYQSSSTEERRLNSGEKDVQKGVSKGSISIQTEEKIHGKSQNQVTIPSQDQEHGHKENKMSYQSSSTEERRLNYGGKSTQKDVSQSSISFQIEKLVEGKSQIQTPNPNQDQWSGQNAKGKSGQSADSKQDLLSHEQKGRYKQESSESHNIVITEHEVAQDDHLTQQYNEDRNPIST", "test": "Antibody blocking ELISA of SEMG2 binding to CD27-Fc", "details": "antibody 10 μg/mL", "excerpt": "Because SEMG2 (497-509) sequence fragment is the key epitope of SEMG2 binding to CD27, and has a relatively short sequence, so SEMG2 (497-509) was used as an immunogen to prepare antibodies, which is theoretically easier to obtain functional antibody molecules with the function of blocking the binding between SEMG2 and CD27 than using full-length SEMG2 to prepare antibodies. For direct comparison, the differences in effective concentration of producing antibody by the two methods were verified using ELISA in the examples. Antibodies produced with SEMG2 (497-509) as immunogen and antibodies produced with full-length SEMG2 were added into the enzyme-linked immunosorbent assay (ELISA) reaction system at different concentrations (10^-2, 10^-1, 10^0, 10^1, 10^2, 10^3, 10^4 μg/mL), and the ELISA binding values were measured. The specific steps of enzyme-linked immunosorbent assay are as follows: (1) Dissolve SEMG2 protein antigen with 50 mM carbonate coating buffer (pH 9.6) to make the antigen concentration 10 μg/mL, and add into 96-well ELISA plate (purchased from Corning) at 100 μL/well, place at 4° C. overnight. (2) After discarding the coating solution on the next day, wash with PBST for three times, add 150 μL of 1% BSA to each well, and block for 2 hours at 37° C. […] (4) After washing for 5 times with PBST, add 100 of diluted HRP-labeled anti-human Fe secondary antibody, and incubate at 37° C. for 1 hour. (5) After washing with PBST for 5 times, 20 min after developing with chromogenic agent, the A450 absorption value was read using the microplate reader.\nThe SEMG2 (497-509) sequence was used to synthesize a polypeptide and coupled to a VLP carrier for immunization; HEK293 cells were used to express the full-length SEMG2 protein, and the purity was tested to reach 92%, and the binding activity of SEMG2 protein to CD27 was verified by ELISA. The protein and polypeptide antigens were used to immunize 10 mice respectively, and multiple immunizations were performed to enhance the effect: (1) The first immunization, 50 μg/mice of antigen, multiple subcutaneous injections together with Freund's complete adjuvant, with an interval of 3 weeks; (2) the second immunization; the same dosage and route as above, with incomplete Freund's adjuvant, and with an interval of 3 weeks; (3) the third immunization, the same dosage as above, without adjuvant, intraperitoneal injection with an interval of 3 weeks; (4) the booster immunization, the dose is 50 μg, intraperitoneal injection. 3 days after the last injection, blood was collected to measure its titer and the immune effect, and mice with higher titers were selected for hybridoma fusion screening. After subcloning, the binding of the monoclonal antibodies to the target antigens was detected by ELISA, and the function of different monoclonal antibodies in blocking the binding between SEMG2 and CD27 was measured by ELISA.\nFirst, SEMG2(497-509) epitope-specific antibodies (for example, MM02, MM05) were compared with other epitope-specific antibodies (for example, HPA042767) for their function in blocking binding between SEMG2 and CD27 at different concentration ranges. […] The blocking function of different antibodies (irrelative mouse IgG, MM02, MM05, HPA042767) on binding between SEMG2 and CD27 was analyzed by the ELISA experiment as described in Example 11.\nFurther, the effects of different antibodies on the binding between SEMG2 and CD27 were compared under the condition of the same antibody concentration. In the ELISA, the same concentration (10 μg/mL) of antibody was used, and the strength of the binding between SEMG2 and CD27 was measured. […]"}, "[2]": {"target": "T2, SEMG2(497-509) fragment (Homo sapiens, UniProt Q02383)", "T2 construct": "SEMG2(497-509) fragment and SEMG2(563-574) fragment were immobilized on the ELISA plate; made in house; host or cells: chemical synthesis", "test": "ELISA binding of antibodies to SEMG2(497-509) epitope", "experimental": "Specifically, SEMG2 full-length protein (1-582), SEMG2(354-403) fragment, SEMG2(442-453) fragment, SEMG2(497-509) fragment and SEMG2(563-574) fragment were immobilized on the ELISA plate, and the same concentration of antibodies (MM02, MM05, MM07, MM08, MM13, MM14, HPA042767 and HPA042835) were added. Anti-mouse or anti-rabbit secondary antibodies were then used to detect the corresponding bound antibodies. MM02, MM05, MM07, MM08, MM13, and MM14 all bound to SEMG2(497509) epitope, HPA042767 bound to SEMG2 (354-403) epitope, and HPA042835 bound to […], while none of the antibodies bound to SEMG2 (442-453) control fragment.\nSpecifically, the preparation of polypeptide antigens and the screening of human natural antibody library were firstly performed. The SEMG2(497-509) polypeptide was synthesized and coupled to BSA and KLH, respectively, and screened in a fully human phage display antibody library. ELISA was used to select clones that bind to antigenic epitopes for preliminary screening. Different unique sequences were obtained after sequencing single colonies, sorted according to affinity sorting, and full-length antibodies were constructed from antigen-binding fragments (Fab) with relatively high affinity. The binding ability and blocking function tests were performed after purification, that is, the effect of the antibody on binding between SEMG2 and CD27 was determined by the ELISA experiment."}, "[3]": {"test_system": "A375 human melanoma cells", "test": "Tumor cell killing by activated PBMC, caspase-3/7 apoptosis", "type": "cell-based", "details": "A375, SEMG2-positive, co-culture with activated PBMC 10:1", "experimental": "(§1) To test the above hypothesis, the effects of different epitope-specific antibodies on tumor cell killing by activated PBMC were compared. Specifically, A375 human melanoma and LOVO human colorectal cancer cells highly expressing SEMG2 were seeded in 96-well plate. Human peripheral blood mononuclear cells (PBMC; #70025, Stem Cell) were activated with 100 ng/mL of CD3 antibody, 100 ng/mL, of CD28 antibody, and 1.0 ng/mL of IL2 (#317303; #302913; #589102, BioLegend), respectively, and co-cultured with the above tumor cells at a ratio of 10:1 in presence of fluorescent caspase-3/7 substrate (#4440, Essen Bioscience). After 1.0 hours, cells were observed under fluorescence microscope.\n(§2) To verify the above hypothesis, tumor cells with high SEMG2 expression (A375, LOVO) and SEMG2-negative tumor cells (DLD1, NCM460 and NCI-H1975) were selected. Different antibodies (irrelevant mouse IgG antibodies, MM02 or MM05 antibodies) were added during the PBMC killing experiments for the tumor cells.\n(§3) To verify the effect of the human antibodies on the function of activated PBMC on tumor cell killing, A375 and LOVO cells were co-cultured with activated PBMC, and H88-93, H88-96, or H88-67 antibody was added at the same time, and the apoptosis ratio of tumor cells were detected."}, "[4]": {"test_system": "LOVO human colorectal cancer cells", "test": "Tumor cell killing by activated PBMC, caspase-3/7 apoptosis", "type": "cell-based", "details": "SEMG2-positive, co-culture with activated PBMC 10:1", "experimental": "as §1, §2, §3"}, "[5]": {"target": "T3, SEMG2 (Homo sapiens, UniProt Q02383)", "T3 sequence (Q02383 24-582)": "T1 sequence (Q02383 24-582)", "test": "Competition ELISA of fully human antibody with murine antibodies for SEMG2", "type": "binding", "details": "concentration gradient of fully human antibody mixed with murine antibody", "experimental": "The binding abilities of fully human antibodies and murine antibodies to SEMG2 were tested, that is, murine antibodies MM02 and MM05 and concentration gradient diluted filly human antibodies H88-93 were mixed and added as primary antibodies in a 96-well microplate coated with SEMG2. Murine monoclonal antibody bound to SEMG2 was measured using anti-mouse HRP secondary antibody. The blocking percentage is calculated according to the following formula:\nBlocking percentage=[1−(A450 of experimental antibody group-Blank control)/(A450 of positive control antibody−A450 of empty control)]×100%"}},
  "data": [
    {"molecule": "B1", "values": [
      {"measurement": "effect on the binding between SEMG2 and CD27", "setting": "[1]", "value": "inhibited the binding"},
      {"measurement": "binding to SEMG2(497-509) epitope", "setting": "[2]", "value": "bind"},
      {"measurement": "apoptosis tumor cell ratio / killing by activated PBMC", "setting": "[3]", "value": "significantly promote the killing"},
      {"measurement": "apoptosis tumor cell ratio / killing by activated PBMC", "setting": "[4]", "value": "significantly promote the killing"},
      {"measurement": "competition with MM02 and MM05 for binding to SEMG2", "setting": "[5]", "value": "competes"}
    ]}
  ]
}
